Test results reported in the supplement of paper PMC7877785.
± gives the uncertainty stated by the source.

Test: self-splicing fitness, log relative to wild type (ln ratio); higher = more splicing; Tetrahymena group I intron in knt gene, E. coli kanamycin selection, DiMSum; sequences stand for … in CUCUCU…GGAGGGAAAAGUUAUCAGGCAUGCACCUGGUAGCUAGUCUUUAAACCAAUAGAUUGCAUCGGUUUAAAAGGCAAGACCGUCAAAUUGCGGGAAAGGGGUCAACAGCCGUUCAGUACCAAGUCUCAGGGGAAACUUUGAGAUGGCCUUGCAAAGGGUAUGGUAAUAAGCUGACGGACAUGGUCCUAACCACGCAGCCAAGUCCUAAGUCAACAGAUCUUCUGUUGAUAUGGAUGCAGUUCACAGACUAAAUGUCGGUCGGGGAAGAUGUAUUCUUCUCAUAAGAUAUAGUCGGACCUCUCCUUAAUGGGAGCUAGCGGAUGAAGUGAUGCAACACUGGAGCCGCUGGGAACUAAUUUGUAUGCGAAAGUAUAUUGAUUAGUUUUGGAGUACUCGUGGUCG
In short: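 Library with all eight P1ex-region intron nucleotides randomised, intron inside the knt kanamycin-resistance gene on pET-22b(+), in E. coli BL21(DE3). Cells grew overnight at 37°C or 30°C on LB agar with or without 25 μg/mL kanamycin (plus 100 μg/mL carbenicillin, 50 μM IPTG, 0.2% rhamnose), in six replicate transformations. Pooled colonies were amplicon-sequenced on Illumina HiSeq 2500. DiMSum fitness is the error-weighted combination of wild-type-normalised replicate fold changes, kanamycin versus none.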

Sequence	self-splicing fitness (ln) (30 °C)	self-splicing fitness (ln) (37 °C)
UUUCAGCAAUAUUACGGGCG	-1.02 ± 0.098	0.331 ± 0.14
UUUCAGCAAUAUUACGGGUU	-3.19 ± 0.24	-2.13 ± 0.18
UUUCAGCAAUAUUACGGUAA	-0.255 ± 0.1	-0.168 ± 0.084
UUUCAGCAAUAUUACGUAAA	-0.728 ± 0.089	-0.608 ± 0.11
UUUCAGCAAUAUUACGUACC	-3.51 ± 0.25	-2.14 ± 0.17
UUUCAGCAAUAUUACGUAGA	-1.72 ± 0.076	-0.283 ± 0.092
UUUCAGCAAUAUUACGUAUC	-1.71 ± 0.14	-1.5 ± 0.14
UUUCAGCAAUAUUACGUAUU	-2.08 ± 0.13	-1.39 ± 0.13
UUUCAGCAAUAUUACGUCGC	-3.67 ± 0.2	-2.73 ± 0.24
UUUCAGCAAUAUUACGUCGG	-1.51 ± 0.1	-1.17 ± 0.14
UUUCAGCAAUAUUACGUCUA	-0.33 ± 0.077	0.101 ± 0.079
UUUCAGCAAUAUUACGUGAG	-0.129 ± 0.054	-0.623 ± 0.07
UUUCAGCAAUAUUACGUGCU	-3.47 ± 0.32	-2 ± 0.24
UUUGAGCAAUAUUACGAACG		-0.865 ± 0.26
UUUGAGCAAUAUUACGACAU	-3.673 ± 0.034	-2.43 ± 0.043
UUUGAGCAAUAUUACGAGUA		-1.86 ± 0.21
UUUGAGCAAUAUUACGCUUA	-3.38 ± 0.36	-2.07 ± 0.23
UUUGAGCAAUAUUACGGAAA	-2.01 ± 0.21	-1.95 ± 0.24
UUUGAGCAAUAUUACGGCGA	-1.09 ± 0.18	-0.162 ± 0.19
UUUGAGCAAUAUUACGGCUC	-2.38 ± 0.42	-1.39 ± 0.46
UUUGAGCAAUAUUACGGGAA	-2.02 ± 0.39	-2.22 ± 0.32

Sequence	self-splicing fitness (ln) (30 °C)	self-splicing fitness (ln) (37 °C)
UUUGAGCAAUAUUACGGGAU	-2.91 ± 0.2	-3.24 ± 0.32
UUUGAGCAAUAUUACGUACG	-1.49 ± 0.32	-0.599 ± 0.35
UUUGAGCAAUAUUACGUCAG	-3.43 ± 0.2	-1.46 ± 0.27
UUUGAGCAAUAUUACGUCGU	-3.91 ± 0.34	-3.09 ± 0.24
UUUGAGCAAUAUUACGUGAU	-2.95 ± 0.33	
UUUUAGCAAUAUUACGACGA	-0.357 ± 0.14	0.422 ± 0.19
UUUUAGCAAUAUUACGACGU	-2.06 ± 0.25	-1.24 ± 0.22
UUUUAGCAAUAUUACGAGCA	-1.72 ± 0.15	-0.97 ± 0.16
UUUUAGCAAUAUUACGAUUG	-1.52 ± 0.14	-0.255 ± 0.16
UUUUAGCAAUAUUACGAUUU	-1.67 ± 0.16	-0.611 ± 0.21
UUUUAGCAAUAUUACGCAUC	-3.19 ± 0.31	-2.15 ± 0.23
UUUUAGCAAUAUUACGGAAG	-1.3 ± 0.17	-0.731 ± 0.19
UUUUAGCAAUAUUACGGCCA	-1.57 ± 0.19	-0.0772 ± 0.19
UUUUAGCAAUAUUACGGCGC	-1.12 ± 0.29	-0.567 ± 0.34
UUUUAGCAAUAUUACGGGGU	-1.6 ± 0.22	-1.08 ± 0.35
UUUUAGCAAUAUUACGGUCG	-0.778 ± 0.2	-0.345 ± 0.18
UUUUAGCAAUAUUACGGUGG	-1.24 ± 0.084	-1.16 ± 0.13
UUUUAGCAAUAUUACGUACA	-2.16 ± 0.15	-0.143 ± 0.2
UUUUAGCAAUAUUACGUAGA	-2.06 ± 0.22	-0.71 ± 0.24
UUUUAGCAAUAUUACGUCCC		-1.78 ± 0.48
UUUUAGCAAUAUUACGUUGC	-2.8 ± 0.43	
